Target: FliPQR complex, V. mimicus (FliP5Q4R1) (Vibrio mimicus (strain DSM 19130))
Test: cryo-EM structure

Work on FlhB, V. mimicus (natural protein) yielded a stoichiometry N of 1.

Reference: PMC7064499
